The text below walks through data of patent publication US8628762B2, “T-helper cell type 17 lineage-specific adjuvants, compositions and methods” (Icahn School of Medicine at Mount Sinai, priority 2008, dated 2014).

Assay type in all cases: cell-based, C57BL/6J mice
Assay [1] deals with Naïve CD4 T-cells. Put plainly: In vitro T-cell differentiation in DC conditioned medium, IL-17/IL-10 in supernatants by ELISA. The note with it: DC derived from MyD88−/−Trif−/− and Tlr4−/− mice; TGF-β concomitantly present. On the procedure:
Bone marrow (BM)-derived GM-CSF DC cultures were grown in RPMI supplemented with GM-CSF and 5% foetal bovine serum (FBS), plus 100 μg/mL penicillin, 100 μg/mL streptomycin, 2 mM L-glutamine, 10 mM HEPES, 1 nM sodium pyruvate, 1×MEM nonessential amino acids, and 2.5 μM β-mercaptoethanol (all from Sigma-Aldrich, St. Louis, Mo.), as previously dcseribed^1. Semi-adherent cells were harvested on ice on day 5 and re-plated immediately in fresh GM-CSF medium at 1×10^6 cells/well in 24-well tissue culture-treated plates. Soluble or phagocytic stimuli were added right away to the plates in the same medium and the cells were centrifuged for 2 min at 2000 rpm. Supernatants (conditioned medium, CM) were collected after 18 hours. LPS (from E. coli, serotype 055:B5, L-2880) was purchased from Sigma-Aldrich. BMDC were treated with various doses of soluble LPS or 2:1 A20 LPS blasts:DC to titrate the LPS such that levels of IL-6 produced by DC in response to these stimuli was similar. Soluble LPS was used at a final concentration of 1 ng/mL. The A20 B-cell line was obtained from the ATCC (TIB-208). A20 LPS blasts were prepared by culturing A20 cells at 1×10^6 cells/mL, 3 mL/well in 6-well tissue culture plates for four days in RPMI medium supplemented with 10% FBS, with 100 μg/mL penicillin, 100 μg/mL streptomycin, 2 mM L-glutamine, 10 mM HEPES, 1 nM sodium pyruvate, plus 25 μg/mL LPS, as previously described in Blander, J. M. and Medzhitov, R. (2004) Science 304(5673):1014. […] Cells were centrifuged, counted, and apoptosis was induced by UV irradiation at 350 mJ. […]
Naïve CD4 T cells were isolated first by sorting with MACS® CD4^+ beads (Miltenyi Biotech, Auburn, Calif.) according to manufacturer's instructions and then by fluorescence activated cell sorting (FACS) using a MoFlo™, Vantage, or Influx™ cell sorter for CD25^−CD44^lowCD62L^high cells using allophycocyanin (APC)-conjugated anti-CD25 monoclonal antibody (mAb) (clone PC61.5), FITC-conjugated CD62L mAb (clone MEL-14), and PE-Cy5-conjugated CD44 mAb (clone IM7) (all from eBioscience™, San Diego, Calif.). […]
For orientation: In an ELISA, binding on a coated surface is turned into a signal by an enzyme label.

Assay [2] has as its system Naïve CD4 T-cells. Kind of assay: qPCR of lineage genes in naïve CD4 T-cells cultured with DCCM. An excerpt:
(§1) Naïve CD4 T cells were isolated first by sorting with MACS® CD4^+ beads (Miltenyi Biotech, Auburn, Calif.) according to manufacturer's instructions and then by fluorescence activated cell sorting (FACS) using a MoFlo™, Vantage, or Influx™ cell sorter for CD25^−CD44^lowCD62L^high cells using allophycocyanin (APC)-conjugated anti-CD25 monoclonal antibody (mAb) (clone PC61.5), FITC-conjugated CD62L mAb (clone MEL-14), and PE-Cy5-conjugated CD44 mAb (clone IM7) (all from eBioscience™, San Diego, Calif.). Cells were grown in complete IMDM (Gibco, Carlsbad, Calif.) supplemented with 10% FBS, 100 μg/mL penicillin, 100 μg/mL streptomycin, 2 mM L-glutamine, 10 mM HEPES, and 1 nM sodium pyruvate, and activated on 48-well tissue-culture plates which had been coated with 4 μg anti-CD3 (clone 2C11) for 3 h at 37° C., then washed 3 times with PBS. Cultures were supplemented with 2 μg/mL anti-CD28 (clone 37-51, a kind gift from J. Allison, Sloan-Kettering Cancer Center) and anti-IL-4 ascites (clone 11B11, a kind gift from T. Moran, Mount Sinai School of Medicine, ATCC number HB188) at 1:500. mAbs 2C11 and 37-51 were purified from hybridoma supernatants by BioXCell Company (West Lebanon, N.H.). When cultured with conditioned medium (CM) from BMDC, T cells were grown in 1:1 CM:fresh complete IMDM. […]
T cells cultured for 48 hours under the indicated conditions were lysed and RNA isolated by TRIzol® extraction (Invitrogen) according to manufacturer's instructions. […] Quantitative real-time, reverse transcription polymerase chain reaction (qPCR) was conducted on an ABI Prism® 7900 instrument (Applied Biosystems, Foster City, Calif.) with primer pairs and probes as follows. […]
Quantitative PCR was performed using TaqMan® quantitative PCR Master Mix at a concentration of 1× (Applied Biosystems). […] “Fold inductions” were calculated using the ΔΔCt method relative to T cells activated under neutral conditions (No cytokines or CM). […]
Background: In qPCR the cycle at which signal appears reflects the starting amount.

Assay [3] deals with Naïve CD4 T-cells. Put plainly: CD4 T-cells in DCCM re-plated on anti-CD3 for 48 h with neutralizing mAbs or IL-23, cytokines by ELISA. The settings on record: re-stimulation for 48 h in the presence of 10 ng/mL IL-23.
From the text: as §1, with “PBS.” for “PBS. Cultures were supplemented with 2 μg/mL anti-CD28 (clone 37-51, a kind gift from J. Allison, Sloan-Kettering Cancer Center) and anti-IL-4 ascites (clone 11B11, a kind gift from T. Moran, Mount Sinai School of Medicine, ATCC number HB188) at 1:500. mAbs 2C11 and 37-51 were purified from hybridoma supernatants by BioXCell Company (West Lebanon, N.H.). When cultured with conditioned medium (CM) from BMDC, T cells were grown in 1:1 CM:fresh complete IMDM.”
Next, naïve CD4 T-cells were isolated from C57BL/6J mice and activated with 4 μg anti-CD3 and 2 μg/mL anti-CD28 plus anti-IL-4 with CM from C57BL/6J (WT) BMDC that had phagocytosed apoptotic LPS B cell-blasts. […] Cytokines were quantified in supernatants by ELISA. […]

Regarding curdlan, the “induction of IL-17+ CD4 T-cells” value in assay [1] is listed as “able to direct induction of IL-17^+ CD4 T-cells”. For the molecule TGF-β, the “Foxp3 mRNA induction” value in assay [2] (quantitative RT-PCR) was “highest induction”.

B1: IL-12: cytokine (eBioscience), 10 ng/mL (protein, UniProt P43431 23-215; P43432 23-335, looked up)
Interleukin-12 subunit alpha: RVIPVSGPARCLSQSRNLLKTTDDMVKTAREKLKHYSCTAEDIDHEDITRDQTSTLKTCLPLELHKNESCLATRETSSTTRGSCLPPQKTSLMMTLCLGSIYEDLKMYQTEFQAINAALQNHNHQQIILDKGMLVAIDELMQSLNHNGETLRQKPPVGEADPYRVKMKLCILLHAFSTRVVTINRVMGYLSSA
Interleukin-12 subunit beta: MWELEKDVYVVEVDWTPDAPGETVNLTCDTPEEDDITWTSDQRHGVIGSGKTLTITVKEFLDAGQYTCHKGGETLSHSHLLLHKKENGIWSTEILKNFKNKTFLKCEAPNYSGRFTCSWLVQRNMDLKFNIKSSSSSPDSRAVTCGMASLSAEKVTLDQRDYEKYSVSCQEDVTCPTAEETLPIELALEARQQNKYENYSTSFFIRDIIKPDPPKNLQMKPLKNSQVEVSWEYPDSWSTPHSYFSLKFFVRIQRKKEKMKETEEGCNQKGAFLVEKTSTEVQCKGGNVCVQAQDRYYNSSCSKWACVPCRVRS
With B1, the “expression of TH1 lineage-specific transcription factor T-bet” value in assay [2] (qPCR after 48 hours of culture) is reported as “expressed the TH1 lineage-specific transcription factor”.

B2: IL-23: cytokine (eBioscience), 10 ng/mL (protein, UniProt Q9EQ14 22-196; P43432 23-335, looked up)
Interleukin-23 subunit alpha: VPRSSSPDWAQCQQLSRNLCMLAWNAHAPAGHMNLLREEEDEETKNNVPRIQCEDGCDPQGLKDNSQFCLQRIRQGLAFYKHLLDSDIFKGEPALLPDSPMEQLHTSLLGLSQLLQPEDHPRETQQMPSLSSSQQWQRPLLRSKILRSLQAFLAIAARVFAHGAATLTEPLVPTA
Interleukin-12 subunit beta: MWELEKDVYVVEVDWTPDAPGETVNLTCDTPEEDDITWTSDQRHGVIGSGKTLTITVKEFLDAGQYTCHKGGETLSHSHLLLHKKENGIWSTEILKNFKNKTFLKCEAPNYSGRFTCSWLVQRNMDLKFNIKSSSSSPDSRAVTCGMASLSAEKVTLDQRDYEKYSVSCQEDVTCPTAEETLPIELALEARQQNKYENYSTSFFIRDIIKPDPPKNLQMKPLKNSQVEVSWEYPDSWSTPHSYFSLKFFVRIQRKKEKMKETEEGCNQKGAFLVEKTSTEVQCKGGNVCVQAQDRYYNSSCSKWACVPCRVRS
For the molecule B2, in assay [3], the “levels of IL-17 produced” value was “only slightly increased the levels of IL-17 produced” and the “total levels of IL-10 produced” value is given as “markedly impaired”.
